# Results as given in the supplement of paper PMC9112550, “Optimization of the antimicrobial peptide Bac7 by deep mutational scanning” (BMC Biology, 2022).
# Tested on: Escherichia coli TOP10
# Assay: shrunken log2 fold change of peptide-encoding DNA abundance (4.5 h post-induction vs induction); higher = less antimicrobial activity (less host growth inhibition)
# Settings: time post-induction: 4.5 h; library: site-saturation at positions 5, 18, 19, 20
# 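Further: peptides expressed intracellularly from a pBAD plasmid library in pooled LB shake-flask culture, induced with 0.3% L-arabinose, DNA abundance read by NGS, three biological replicates, DESeq2 with apeglm shrinkage.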
row,Sequence,shrunken log2 fold change
1,RRIRTRPPRLPRPRPRPPIKPRP,-0.368
2,RRIRARPPRLPRPRPRPLMHPRP,0.446
3,RRIRNRPPRLPRPRPRPHQVPRP,0.0294
4,RRIRRRPPRLPRPRPRPDDKPRP,0.0703
5,RRIRGRPPRLPRPRPRPVHGPRP,-0.244
6,RRIRARPPRLPRPRPRPVKEPRP,-0.0493
7,RRIRMRPPRLPRPRPRPYVWPRP,-0.0956
8,RRIRHRPPRLPRPRPRPHTGPRP,-0.226
9,RRIRYRPPRLPRPRPRPAKWPRP,0.0339
10,RRIRFRPPRLPRPRPRPILFPRP,-0.0517
11,RRIRARPPRLPRPRPRPQPKPRP,0.465
12,RRIRQRPPRLPRPRPRPPLFPRP,0.838
13,RRIRCRPPRLPRPRPRPTSAPRP,0.18
14,RRIRIRPPRLPRPRPRPQIKPRP,-0.853
15,RRIRGRPPRLPRPRPRPDDPPRP,0.0369
16,RRIRFRPPRLPRPRPRPNYVPRP,-0.492
17,RRIRLRPPRLPRPRPRPWSQPRP,-0.145
18,RRIRVRPPRLPRPRPRPDIHPRP,-0.427
19,RRIRMRPPRLPRPRPRPQWCPRP,-0.0474
20,RRIRTRPPRLPRPRPRPYIWPRP,-0.329
21,RRIRERPPRLPRPRPRPNATPRP,0.287
22,RRIRKRPPRLPRPRPRPRPRPRP,1.01
23,RRIRNRPPRLPRPRPRPKYKPRP,-0.726
24,RRIRHRPPRLPRPRPRPMAWPRP,0.0581
25,RRIRDRPPRLPRPRPRPLIVPRP,0.173

row,Sequence,shrunken log2 fold change
1,RRIRDRPPRLPRPRPRPTNPPRP,-0.417
2,RRIRVRPPRLPRPRPRPLPCPRP,-0.12
3,RRIRCRPPRLPRPRPRPSGLPRP,0.0264
4,RRIRMRPPRLPRPRPRPMDTPRP,-0.00187
5,RRIRGRPPRLPRPRPRPGQEPRP,0.974
6,RRIRHRPPRLPRPRPRPIREPRP,-0.00145
7,RRIRCRPPRLPRPRPRPDEQPRP,-0.00573
8,RRIRIRPPRLPRPRPRPTKAPRP,-0.162
9,RRIRQRPPRLPRPRPRPVKTPRP,0.139
10,RRIRTRPPRLPRPRPRPQWWPRP,0.199
11,RRIRTRPPRLPRPRPRPTLDPRP,0.249
12,RRIRQRPPRLPRPRPRPHHEPRP,0.0974
13,RRIRHRPPRLPRPRPRPNEDPRP,-0.081
14,RRIRPRPPRLPRPRPRPAPEPRP,0.346
15,RRIRDRPPRLPRPRPRPYKDPRP,-0.221
16,RRIRYRPPRLPRPRPRPLVVPRP,-0.72
17,RRIRRRPPRLPRPRPRPATAPRP,0.479
18,RRIRLRPPRLPRPRPRPVLCPRP,0.168
19,RRIRPRPPRLPRPRPRPSERPRP,-0.0297
20,RRIRNRPPRLPRPRPRPWKPPRP,0.0219
21,RRIRQRPPRLPRPRPRPNLKPRP,-0.196
22,RRIRYRPPRLPRPRPRPVIIPRP,-0.156
23,RRIRRRPPRLPRPRPRPFCAPRP,0.488
24,RRIRQRPPRLPRPRPRPLKEPRP,-0.0182
25,RRIRTRPPRLPRPRPRPLRQPRP,0.456

row,Sequence,shrunken log2 fold change
1,RRIRTRPPRLPRPRPRPNLWPRP,-0.0774
2,RRIRHRPPRLPRPRPRPKSQPRP,-0.149
3,RRIRVRPPRLPRPRPRPGDCPRP,0.404
4,RRIRDRPPRLPRPRPRPQWHPRP,-0.292
5,RRIRWRPPRLPRPRPRPWWKPRP,-0.00743
6,RRIRWRPPRLPRPRPRPSMTPRP,0.178
7,RRIRERPPRLPRPRPRPAQVPRP,-0.149
8,RRIRPRPPRLPRPRPRPNWPPRP,0.0357
9,RRIRHRPPRLPRPRPRPCMFPRP,-0.995
10,RRIRARPPRLPRPRPRPVPVPRP,0.423
11,RRIRIRPPRLPRPRPRPGYPPRP,-0.173
12,RRIRSRPPRLPRPRPRPYTKPRP,-0.202
13,RRIRDRPPRLPRPRPRPTTVPRP,0.258
14,RRIRHRPPRLPRPRPRPSHMPRP,-0.856
15,RRIRARPPRLPRPRPRPCYAPRP,-0.26
16,RRIRWRPPRLPRPRPRPAKSPRP,0.228
17,RRIRFRPPRLPRPRPRPIMQPRP,-0.497
18,RRIRMRPPRLPRPRPRPNRRPRP,0.179
19,RRIRQRPPRLPRPRPRPLSWPRP,0.485
20,RRIRHRPPRLPRPRPRPAMFPRP,0.0207
21,RRIRVRPPRLPRPRPRPFWAPRP,0.182
22,RRIRPRPPRLPRPRPRPEVGPRP,0.353
23,RRIRCRPPRLPRPRPRPECDPRP,0.346
24,RRIRYRPPRLPRPRPRPPAWPRP,-0.0773
25,RRIRIRPPRLPRPRPRPQHSPRP,-0.463

row,Sequence,shrunken log2 fold change
1,RRIRMRPPRLPRPRPRPQGEPRP,-0.0117
2,RRIRRRPPRLPRPRPRPALRPRP,0.648
3,RRIRWRPPRLPRPRPRPYISPRP,-0.816
4,RRIRRRPPRLPRPRPRPVHLPRP,-0.022
5,RRIRPRPPRLPRPRPRPENIPRP,-0.102
6,RRIRVRPPRLPRPRPRPNRRPRP,-0.0977
7,RRIRWRPPRLPRPRPRPPGLPRP,0.601
8,RRIRIRPPRLPRPRPRPLWWPRP,0.266
9,RRIRKRPPRLPRPRPRPWCEPRP,0.157
10,RRIRPRPPRLPRPRPRPTHGPRP,0.478
11,RRIRTRPPRLPRPRPRPTNYPRP,-0.857
12,RRIRPRPPRLPRPRPRPISNPRP,-0.408
13,RRIRWRPPRLPRPRPRPEVHPRP,-0.039
14,RRIRWRPPRLPRPRPRPDAEPRP,1.89
15,RRIRKRPPRLPRPRPRPKWLPRP,-0.0433
16,RRIRKRPPRLPRPRPRPSRCPRP,0.392
17,RRIRCRPPRLPRPRPRPGVFPRP,-0.00263
18,RRIRMRPPRLPRPRPRPAAEPRP,2.71
19,RRIRWRPPRLPRPRPRPLMAPRP,0.247
20,RRIRIRPPRLPRPRPRPQLAPRP,-0.0191
21,RRIRLRPPRLPRPRPRPGATPRP,0.527
22,RRIRARPPRLPRPRPRPQMLPRP,1.97
23,RRIRKRPPRLPRPRPRPQNWPRP,0.508
24,RRIRVRPPRLPRPRPRPRPKPRP,0.521
25,RRIRRRPPRLPRPRPRPVTAPRP,0.452

row,Sequence,shrunken log2 fold change
1,RRIRARPPRLPRPRPRPQWSPRP,0.245
2,RRIRIRPPRLPRPRPRPKSIPRP,-0.14
3,RRIRSRPPRLPRPRPRPGFAPRP,0.502
4,RRIRWRPPRLPRPRPRPMCVPRP,0.0501
5,RRIRWRPPRLPRPRPRPHYNPRP,-0.772
6,RRIRKRPPRLPRPRPRPIMTPRP,-0.111
7,RRIRGRPPRLPRPRPRPLCPPRP,0.422
8,RRIRQRPPRLPRPRPRPQIRPRP,-0.307
9,RRIRMRPPRLPRPRPRPCQWPRP,-0.152
10,RRIRTRPPRLPRPRPRPENEPRP,0.138
11,RRIRLRPPRLPRPRPRPPLQPRP,0.67
12,RRIRQRPPRLPRPRPRPRQIPRP,0.0413
13,RRIRWRPPRLPRPRPRPHWAPRP,-0.102
14,RRIRERPPRLPRPRPRPRLDPRP,0.0479
15,RRIRIRPPRLPRPRPRPDDGPRP,-0.184
16,RRIRGRPPRLPRPRPRPHRWPRP,0.252
17,RRIRNRPPRLPRPRPRPAPEPRP,0.948
18,RRIRPRPPRLPRPRPRPDKSPRP,-0.442
19,RRIRERPPRLPRPRPRPDQDPRP,-0.00875
20,RRIRHRPPRLPRPRPRPGHEPRP,-0.133
21,RRIRDRPPRLPRPRPRPIAAPRP,0.476
22,RRIRMRPPRLPRPRPRPFHHPRP,-0.419
23,RRIRYRPPRLPRPRPRPDDHPRP,-0.264
24,RRIRKRPPRLPRPRPRPIAFPRP,-0.0784
25,RRIRSRPPRLPRPRPRPRFTPRP,-0.115

row,Sequence,shrunken log2 fold change
1,RRIRYRPPRLPRPRPRPKSQPRP,-0.176
2,RRIRWRPPRLPRPRPRPVKCPRP,-0.015
3,RRIRVRPPRLPRPRPRPYQAPRP,-0.293
4,RRIRARPPRLPRPRPRPTPTPRP,0.968
5,RRIRYRPPRLPRPRPRPHIHPRP,-0.745
6,RRIRDRPPRLPRPRPRPSESPRP,-0.000946
7,RRIRWRPPRLPRPRPRPARLPRP,0.523
8,RRIRARPPRLPRPRPRPEPDPRP,-0.0215
9,RRIRDRPPRLPRPRPRPYTQPRP,-0.165
10,RRIRNRPPRLPRPRPRPHAGPRP,0.00938
11,RRIRKRPPRLPRPRPRPCSMPRP,-0.00483
12,RRIRGRPPRLPRPRPRPLQWPRP,0.534
13,RRIRGRPPRLPRPRPRPDSAPRP,0.525
14,RRIRQRPPRLPRPRPRPGPMPRP,0.261
15,RRIRMRPPRLPRPRPRPWSAPRP,0.149
16,RRIRARPPRLPRPRPRPAQTPRP,0.057
17,RRIRIRPPRLPRPRPRPAEDPRP,-0.0521
18,RRIRCRPPRLPRPRPRPVFSPRP,-0.385
19,RRIRNRPPRLPRPRPRPKWTPRP,-0.0342
20,RRIRCRPPRLPRPRPRPNQPPRP,-0.0425
21,RRIRSRPPRLPRPRPRPRTKPRP,0.407
22,RRIRFRPPRLPRPRPRPQTSPRP,-0.449
23,RRIRCRPPRLPRPRPRPEHHPRP,-0.114
24,RRIRWRPPRLPRPRPRPNLLPRP,0.0966
25,RRIRARPPRLPRPRPRPEEEPRP,0.178
